US20050013808A1, “Nitroreductase enzymes” (priority 2001, published 2005)
Several values for one entry are separate records, joined by “and”; a condition that tells them apart may be missing. Equal entries are not always repeated.

B1: F124M (protein)
chain: MDIISVALKRHSTKAFDASKKLTPEQAEQIKTLLQYSPSSTNSQPWHFIVASTEEGKARVAKSAAGNYVFNERKMLDASHVVVFCAKTAMDDVWLKLVVDQEDADGRFATPEAKAANDKGRKFMADMHRKDLHDDAEWMAKQVYLNVGNFLLGVAALGLDAVPIEGFDAAILDAEFGLKEKGYTSLVVVPVGHHSVEDFNATLPKSRLPQNITLTEV
B2: F124Y (protein)
chain: MDIISVALKRHSTKAFDASKKLTPEQAEQIKTLLQYSPSSTNSQPWHFIVASTEEGKARVAKSAAGNYVFNERKMLDASHVVVFCAKTAMDDVWLKLVVDQEDADGRFATPEAKAANDKGRKFYADMHRKDLHDDAEWMAKQVYLNVGNFLLGVAALGLDAVPIEGFDAAILDAEFGLKEKGYTSLVVVPVGHHSVEDFNATLPKSRLPQNITLTEV
B3: F124A (protein)
chain: MDIISVALKRHSTKAFDASKKLTPEQAEQIKTLLQYSPSSTNSQPWHFIVASTEEGKARVAKSAAGNYVFNERKMLDASHVVVFCAKTAMDDVWLKLVVDQEDADGRFATPEAKAANDKGRKFAADMHRKDLHDDAEWMAKQVYLNVGNFLLGVAALGLDAVPIEGFDAAILDAEFGLKEKGYTSLVVVPVGHHSVEDFNATLPKSRLPQNITLTEV
B4: Y68C (protein)
chain: MDIISVALKRHSTKAFDASKKLTPEQAEQIKTLLQYSPSSTNSQPWHFIVASTEEGKARVAKSAAGNCVFNERKMLDASHVVVFCAKTAMDDVWLKLVVDQEDADGRFATPEAKAANDKGRKFFADMHRKDLHDDAEWMAKQVYLNVGNFLLGVAALGLDAVPIEGFDAAILDAEFGLKEKGYTSLVVVPVGHHSVEDFNATLPKSRLPQNITLTEV
B5: F124S (protein)
chain: MDIISVALKRHSTKAFDASKKLTPEQAEQIKTLLQYSPSSTNSQPWHFIVASTEEGKARVAKSAAGNYVFNERKMLDASHVVVFCAKTAMDDVWLKLVVDQEDADGRFATPEAKAANDKGRKFSADMHRKDLHDDAEWMAKQVYLNVGNFLLGVAALGLDAVPIEGFDAAILDAEFGLKEKGYTSLVVVPVGHHSVEDFNATLPKSRLPQNITLTEV
B6: F124G (protein)
chain: MDIISVALKRHSTKAFDASKKLTPEQAEQIKTLLQYSPSSTNSQPWHFIVASTEEGKARVAKSAAGNYVFNERKMLDASHVVVFCAKTAMDDVWLKLVVDQEDADGRFATPEAKAANDKGRKFGADMHRKDLHDDAEWMAKQVYLNVGNFLLGVAALGLDAVPIEGFDAAILDAEFGLKEKGYTSLVVVPVGHHSVEDFNATLPKSRLPQNITLTEV
B7: F124W (protein)
chain: MDIISVALKRHSTKAFDASKKLTPEQAEQIKTLLQYSPSSTNSQPWHFIVASTEEGKARVAKSAAGNYVFNERKMLDASHVVVFCAKTAMDDVWLKLVVDQEDADGRFATPEAKAANDKGRKFWADMHRKDLHDDAEWMAKQVYLNVGNFLLGVAALGLDAVPIEGFDAAILDAEFGLKEKGYTSLVVVPVGHHSVEDFNATLPKSRLPQNITLTEV
B8: F124V (protein)
chain: MDIISVALKRHSTKAFDASKKLTPEQAEQIKTLLQYSPSSTNSQPWHFIVASTEEGKARVAKSAAGNYVFNERKMLDASHVVVFCAKTAMDDVWLKLVVDQEDADGRFATPEAKAANDKGRKFVADMHRKDLHDDAEWMAKQVYLNVGNFLLGVAALGLDAVPIEGFDAAILDAEFGLKEKGYTSLVVVPVGHHSVEDFNATLPKSRLPQNITLTEV
B9: Y68S (protein)
chain: MDIISVALKRHSTKAFDASKKLTPEQAEQIKTLLQYSPSSTNSQPWHFIVASTEEGKARVAKSAAGNSVFNERKMLDASHVVVFCAKTAMDDVWLKLVVDQEDADGRFATPEAKAANDKGRKFFADMHRKDLHDDAEWMAKQVYLNVGNFLLGVAALGLDAVPIEGFDAAILDAEFGLKEKGYTSLVVVPVGHHSVEDFNATLPKSRLPQNITLTEV
B10: F124C (protein)
chain: MDIISVALKRHSTKAFDASKKLTPEQAEQIKTLLQYSPSSTNSQPWHFIVASTEEGKARVAKSAAGNYVFNERKMLDASHVVVFCAKTAMDDVWLKLVVDQEDADGRFATPEAKAANDKGRKFCADMHRKDLHDDAEWMAKQVYLNVGNFLLGVAALGLDAVPIEGFDAAILDAEFGLKEKGYTSLVVVPVGHHSVEDFNATLPKSRLPQNITLTEV
B11: F124T (protein)
chain: MDIISVALKRHSTKAFDASKKLTPEQAEQIKTLLQYSPSSTNSQPWHFIVASTEEGKARVAKSAAGNYVFNERKMLDASHVVVFCAKTAMDDVWLKLVVDQEDADGRFATPEAKAANDKGRKFTADMHRKDLHDDAEWMAKQVYLNVGNFLLGVAALGLDAVPIEGFDAAILDAEFGLKEKGYTSLVVVPVGHHSVEDFNATLPKSRLPQNITLTEV
B12: Y68A (protein)
chain: MDIISVALKRHSTKAFDASKKLTPEQAEQIKTLLQYSPSSTNSQPWHFIVASTEEGKARVAKSAAGNAVFNERKMLDASHVVVFCAKTAMDDVWLKLVVDQEDADGRFATPEAKAANDKGRKFFADMHRKDLHDDAEWMAKQVYLNVGNFLLGVAALGLDAVPIEGFDAAILDAEFGLKEKGYTSLVVVPVGHHSVEDFNATLPKSRLPQNITLTEV
B13: F124Q (protein)
chain: MDIISVALKRHSTKAFDASKKLTPEQAEQIKTLLQYSPSSTNSQPWHFIVASTEEGKARVAKSAAGNYVFNERKMLDASHVVVFCAKTAMDDVWLKLVVDQEDADGRFATPEAKAANDKGRKFQADMHRKDLHDDAEWMAKQVYLNVGNFLLGVAALGLDAVPIEGFDAAILDAEFGLKEKGYTSLVVVPVGHHSVEDFNATLPKSRLPQNITLTEV

Assays:
[1] = tested on: UT5600 cells (NTR−) lysogens; assay: Survival curve (colony count) IC50 of CB1954 in NTR-expressing lysogens; type: cell-based, E. coli; conditions: concentration of CB1954 giving 50% reduction in colony number after 36h growth; lysogen expressing the named NTR
Method: To quantify the improvement in NTR activity in the clones in a less subjective way, a few clones were selected for further study by determining their survival curves. The lysogens were grown overnight in LB +kanamycin and diluted to approximately 1 cell per μl based on the OD. In duplicate, 100 μl diluted cells were plated into Tris-buffered LB plates containing kanamycin, IPTG and 0-400 μM CB1954. After 36h growth the number of colonies on each plate were counted and expressed as a percentage of the number present on the plates with no CB1954. Survival curves showing % survival versus concentration of CB 1954 were plotted (see examples in FIG. 7) and the IC50 determined as the concentration of CB 1954 which kills gives a 50% reduction in colony number (Table 3 and FIG. 8). A few clones containing mutations resulting in an enhanced sensitivity to CB 1954 were selected for further study.

[2] = tested on: UT5600 cells (NTR−) lysogens; assay: Replica-plate screening of mutant NTR-expressing lysogens on increasing CB1954 (growth score); type: cell-based, E. coli; parameters: key to Score: 0: Good growth on all concentrations of CB 1954 = vector; Good growth on 100 and 200, faint on 300, ring of growth on 400 μM; Good growth on 100 and 200, ring growth on 300, none or very faint on 400 μM; Good growth on 100, faint to good on 200, none or very faint on 300 and 400 μM; 4: Good growth on 100 μM, none to ring growth on 200 μM = wild type; Good growth on 50 μM, ring on 100 μM, none on 200, 300 or 400 μM; 6: Faint growth on 50 μM, ring on 100 μM; 7: Good growth on 50 μM, none on 100 μM; 8: Ring growth on 50 μM, none on 100 μM; 9: None or very faint growth on 50 μM, none on 100 μM; 10: None or ring growth on 35 μM; conditions: for Score: growth of lysogens on agar with kanamycin, IPTG and 0-400 μM CB1954, wild type = 4, higher = more sensitive
Method: The ligation mix was packaged (Stratagene) into lambda bacteriophage particles that were used to infect UT5600 cells (NTR ^−). As a control wild type NTR was also cloned into this vector (JG16C2). Kanamycin resistant lysogens were selected on agar plates ([…] kanamycin) then individually grown overnight in a well of a 96-well plate in LB+Kanamycin. The clones were replica plated on to a series of plates containing Tris-buffered (50 mM, pH 7.5) LB agar with kanamycin, IPTG (0.1 mM) and CB1954 at a concentration of 0, 25, 35, 50, 100, 200, 300 or 400 μM (see FIG. 3). […]

Row | Molecule | IC50 [1] | nitroreductase activity with CB1954 compared with wild-type [2] | Score [2]
1 | B1 | 33 µM | substantially greater activity with CB 1954 than the wild-type | 9
2 | B2 | 66 µM | substantially greater activity with CB 1954 than the wild-type | 5-7
3 | B3 | 20 µM and 32 µM | substantially greater activity with CB 1954 than the wild-type | 7-9
4 | B4 | 105 µM | – | 5
5 | B5 | 41 µM | substantially greater activity with CB 1954 than the wild-type | 7-9
6 | B6 | 49 µM | substantially greater activity with CB 1954 than the wild-type | 7
7 | B7 | 56 µM | substantially greater activity with CB 1954 than the wild-type | 5-7
8 | B8 | 37 µM and 53 µM | substantially greater activity with CB 1954 than the wild-type | 7-9
9 | B9 | 96 µM | – | 5-7
10 | B10 | 36 µM | substantially greater activity with CB 1954 than the wild-type | 7-9
11 | B11 | 56 µM and 87 µM | substantially greater activity with CB 1954 than the wild-type | 7-9 and 7-8
12 | B12 | 81 µM | – | 5-7
13 | B13 | 39 µM | substantially greater activity with CB 1954 than the wild-type | 8
